Results reported in patent US20020127652A1 (published 2002).

T1: human FSH receptor (human, UniProt P23945 18-695)
T1 sequence (looked up): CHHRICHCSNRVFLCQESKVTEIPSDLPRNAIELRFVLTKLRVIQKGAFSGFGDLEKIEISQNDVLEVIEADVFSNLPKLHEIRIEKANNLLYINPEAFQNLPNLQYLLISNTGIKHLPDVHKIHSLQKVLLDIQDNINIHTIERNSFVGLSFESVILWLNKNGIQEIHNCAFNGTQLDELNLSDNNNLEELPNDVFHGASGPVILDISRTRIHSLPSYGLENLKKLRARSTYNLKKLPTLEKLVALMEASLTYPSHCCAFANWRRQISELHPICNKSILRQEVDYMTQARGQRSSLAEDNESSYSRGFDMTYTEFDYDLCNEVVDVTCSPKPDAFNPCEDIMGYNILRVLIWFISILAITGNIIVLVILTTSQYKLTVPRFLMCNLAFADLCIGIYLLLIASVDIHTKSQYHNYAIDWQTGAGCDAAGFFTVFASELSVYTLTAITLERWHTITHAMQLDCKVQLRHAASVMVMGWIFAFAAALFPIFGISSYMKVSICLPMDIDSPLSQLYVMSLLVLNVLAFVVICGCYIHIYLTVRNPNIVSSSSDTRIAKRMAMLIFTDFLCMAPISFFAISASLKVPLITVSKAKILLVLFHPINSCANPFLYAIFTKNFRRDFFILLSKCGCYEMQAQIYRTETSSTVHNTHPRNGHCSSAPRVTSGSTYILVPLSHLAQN


Biological target: T1, human FSH receptor
Experiment: cell-based or functional assay

luciferase signal of the CHO FSH-R/CRE-luc reporter clone, EC50 [IU/ml] | specific activity (in vitro bioactivity in the FSH luciferase assay per FSH content by ELISA), relative to wildtype FSH | Binder
~0.01 |  | wildtype human FSH (follicle stimulating hormone), recombinant, produced in CHO K1 cells (ligand) chain 1: not shown chain 2: CELTNITIAIEKEECRFCISINTTWCAGYCYTRDLVYKDPARPKIQKTCTFKELVYETVRVPGCAHHADSLYTYPVATQCHCGKCDSDSTDCTVRGLGPSYCSFGEMKE
 | ~0.33 fold of the wildtype reference | FSH1208, variant form of FSH containing two N-linked glycosylations at the N-terminus of the alpha subunit (ligand, both asparagine residues of the N-terminal extension … are glycosylated) chain 1: not shown chain 2: CELTNITIAIEKEECRFCISINTTWCAGYCYTRDLVYKDPARPKIQKTCTFKELVYETVRVPGCAHHADSLYTYPVATQCHCGKCDSDSTDCTVRGLGPSYCSFGEMKE
